In article PMC8464078:

What was measured:
[1] = molecular target: Xenopus Rif1–CTD S2058A (Xenopus); assay: pull-down
[2] = molecular target: Xenopus Rif1–CTD S2058D (Xenopus); assay: pull-down

protein phosphatase 1 (PP1), gamma catalytic subunit (from UniProt P36874 1-323) (enzyme)
PP1 bound, percent of wild type Rif1–CTD [1]: 54%
PP1 bound, percent of wild type Rif1–CTD [2]: 9%
